Assays:
[1] = molecular target: AIP56^1–285 (N-terminal domain of AIP56, apoptosis-inducing protein of 56 kDa) (Photobacterium damselae piscicida); experiment: reducing and non-reducing SDS-PAGE; purified AIP56^1–285 and AIP56^286–497, each alone, run with and without DTT (Figure S5A); dimers held by a disulphide formed on oxidation
[2] = molecular target: AIP56^1–285 (N-terminal domain of AIP56, apoptosis-inducing protein of 56 kDa) (Photobacterium damselae piscicida); experiment: reducing and non-reducing SDS-PAGE; reconstituted AIP56: AIP56^1–285 and AIP56^286–497 mixed in equimolar amounts in 8 M urea, 1 mM DTT, refolded by extensive dialysis against sbPBS; run with and without DTT (Figure S6A)
[3] = molecular target: AIP56^286–497 (C-terminal domain of AIP56, apoptosis-inducing protein of 56 kDa) (Photobacterium damselae piscicida); experiment: reducing and non-reducing SDS-PAGE; purified AIP56^1–285 and AIP56^286–497, each alone, run with and without DTT (Figure S5A); dimers held by a disulphide formed on oxidation
[4] = molecular target: AIP56^286–497 (C-terminal domain of AIP56, apoptosis-inducing protein of 56 kDa) (Photobacterium damselae piscicida); experiment: reducing and non-reducing SDS-PAGE; reconstituted AIP56: AIP56^1–285 and AIP56^286–497 mixed in equimolar amounts in 8 M urea, 1 mM DTT, refolded by extensive dialysis against sbPBS; run with and without DTT (Figure S6A)

Row | Substance | stoichiometry N [1] | stoichiometry N [2] | stoichiometry N [3] | stoichiometry N [4]
1 | AIP56^1–285 (N-terminal domain of AIP56, apoptosis-inducing protein of 56 kDa) (domain or fragment) | 2 | 2 |  | 
2 | AIP56^286–497 (C-terminal domain of AIP56, apoptosis-inducing protein of 56 kDa) (domain or fragment) |  |  | 2 | 2
